# Experimental data published in EP4703388A1.
# Tests used:
# [1] = target: human tissue factor (TF) on MDA-MB-231, NCI-H358 and HCT116 cells (human) (UniProt P13726); experiment: cell-based or functional assay
# [2] = target: HuRatTF, human-rat hybrid TF antigen (human-rat hybrid); experiment: ELISA, HuRatTF coated, antibody titrated
# Sequence of HuRatTF, human-rat hybrid TF antigen (human-rat hybrid) (chain, as listed by the source limits assumed): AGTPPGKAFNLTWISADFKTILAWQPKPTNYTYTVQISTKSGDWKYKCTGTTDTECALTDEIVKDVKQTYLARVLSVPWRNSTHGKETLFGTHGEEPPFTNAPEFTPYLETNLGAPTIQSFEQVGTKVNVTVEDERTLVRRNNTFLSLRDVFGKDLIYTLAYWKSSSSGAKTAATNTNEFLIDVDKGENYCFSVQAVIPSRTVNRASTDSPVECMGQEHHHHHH
# Sequence of human tissue factor (TF) on MDA-MB-231, NCI-H358 and HCT116 cells (human) (P13726 33-295): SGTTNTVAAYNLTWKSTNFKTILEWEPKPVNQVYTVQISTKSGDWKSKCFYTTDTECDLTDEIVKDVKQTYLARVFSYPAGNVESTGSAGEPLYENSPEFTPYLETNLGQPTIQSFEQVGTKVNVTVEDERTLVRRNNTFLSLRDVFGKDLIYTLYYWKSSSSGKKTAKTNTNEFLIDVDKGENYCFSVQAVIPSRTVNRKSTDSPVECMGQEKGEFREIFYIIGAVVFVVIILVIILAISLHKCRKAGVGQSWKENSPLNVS
substance,measurement,setting,value
TF011 (monoclonal antibody sequence of tisotumab vedotin),"Inhibition rate (%), Factor-VII-Human Chromogenic-Activity blood coagulation pathway assay (FVIIa, MDA-MB-231 cells, FX; antibody 20 µg/mL)",[1],92.8%
same,Maximum (OD450 nm),[2],0.0585 OD450 nm
